Data reported in the supplement of paper PMC9170038.

System: MS2 coat protein
Experiment: apparent KD of MS2 coat protein; designed switch direction (-1 OFF switch, 1 ON switch): 1; higher = weaker reporter binding
Procedure, shortened: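 The reported apparent KD is a per-design median over clusters, from curve fits of normalised cluster fluorescence. Protein titrations used SNAP-549-labelled MS2 coat protein, doubled from 0.7 or 1.5 nM to 3 µM, in Tris-HCl pH 7.5 buffer with KCl, MgCl2, BSA, DTT, tRNA and Tween-20, with no input, 200 uM small-molecule ligand, or an oligonucleotide input. The RNA switches were transcribed on Illumina chips by stalled E. coli RNA polymerase.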

[1] = Eterna round: R95, input ligand: FMN 200 uM
[2] = Eterna round: R95, input ligand: microRNA oligo, concentration not stated
[3] = Eterna round: R95, input ligand: none
[4] = input ligand: microRNA oligo, concentration not stated

AAACUACAUGAGGAUCACCCAUGUGAAAACCGCAUAGGAUAUCCGCAGCAAUGAGCUGACGGAGAAGGGUGACCGG [Riater] (puzzle: Same State 1)
apparent KD of MS2 coat protein [1]: 175 nM
apparent KD of MS2 coat protein [2]: 103 nM
apparent KD of MS2 coat protein [3]: 276 nM

CUGCUACAUGAGGAUCACCCAUGUUGGAGUGAUGCAGGAUAUGUGGGACCAGAAGAUGAAACAGAAGGGCAAGGAG [JR_SS!_Sub006] (puzzle: Same State 1)
apparent KD of MS2 coat protein [1]: 110 nM
apparent KD of MS2 coat protein [2]: 95.7 nM
apparent KD of MS2 coat protein [3]: 152 nM

UCUUGGUUUUUGCUCGUUUUUUGUGUUGAACAUGAGGAUCACCCAUGUAUUGUACAAUCCGGUUUAAUAAUGGUCCG [JMF 51] (puzzle: Sensor for hsa-mir-208a)
apparent KD of MS2 coat protein [1]: 35.2 nM
apparent KD of MS2 coat protein [2]: 26.7 nM
apparent KD of MS2 coat protein [3]: 36.3 nM

AGUAUACAUGAGGAUCACCCAUGUCAGUAACUGACAGGAUAUGCGUUGCAUCACUGUAAUGCAGAAGGGUCUUGUA [Same State 1 - Mod of JMF's solution 1] (Eterna round: R96, puzzle: Same State 1)
apparent KD of MS2 coat protein (input ligand: FMN 200 uM): 138 nM
apparent KD of MS2 coat protein [4]: 324 nM
apparent KD of MS2 coat protein (input ligand: none): 379 nM

GCGAAGAGGUAAGGAUAUGCAUGGCGGAGACAUGAGGAUCACCCAUGUUGGAGACGAAAUCUAGGGUAGAAGGUACCGGGAAGC [ssng2 v2 b] (Eterna round: R96, puzzle: Same State NG 2)
apparent KD of MS2 coat protein (input ligand: FMN 200 uM): 75.4 nM
apparent KD of MS2 coat protein [4]: 70.2 nM
apparent KD of MS2 coat protein (input ligand: none): 110 nM

UACAAUCUAUCUGAGGAUAUCAUGAUCAUAACAUGAGGAUCACCCAUGUGCAGGAAAACUGCAUAUGAGAAGGCAGAUAGAUUGU [salish99_ss2_r3_073] (puzzle: Same State 2)
apparent KD of MS2 coat protein [1]: 214 nM
apparent KD of MS2 coat protein [2]: 154 nM
apparent KD of MS2 coat protein [3]: 863 nM

UUGUUUCGUCAUUAACAUGAGGAUCACCCAUGUAUCGACUCAAAGGAUAUAUAUGCUUGUUUGCAAUAGAAGGUUGAUUGUUGU [JR_SSNG3_Sub092] (Eterna round: R96, puzzle: Same State NG 3)
apparent KD of MS2 coat protein [4]: 28.1 nM

UAGAGAGGAAGCGAGGAUAUCGUGUGAGGUACAUGAGGAUCACCCAUGUUUUAUGUUGAGAGAGGCGAGAAGGCGCAGGAGAAAA [JR_SS2_Sub087] (puzzle: Same State 2)
apparent KD of MS2 coat protein [1]: 20 nM
apparent KD of MS2 coat protein [2]: 37.3 nM
apparent KD of MS2 coat protein [3]: 26.2 nM

ACAAGCUUUUCUGUAUUGAAAGGUGGGAUACAUGAGGAUCACCCAUGUUUUUUUGAAAAUAAUAUUCCUCGUCUUAU [JR_SHM208A_Sub091] (puzzle: Sensor for hsa-mir-208a)
apparent KD of MS2 coat protein [1]: 51.5 nM
apparent KD of MS2 coat protein [2]: 33.1 nM
apparent KD of MS2 coat protein [3]: 47.1 nM

UUGCGCUGUCGAGAGGAUAUGCGGUGAUGGACAUGAGGAUCACCCAUGUUAGCGAUAGCAUUACGGUAGAAGGCUCUACAGCUGC [salish99_ss2_r3_094] (puzzle: Same State 2)
apparent KD of MS2 coat protein [1]: 13 nM
apparent KD of MS2 coat protein [2]: 21.5 nM
apparent KD of MS2 coat protein [3]: 21.9 nM

AGUAUACAUGAGGAUCACCCAUGUCAGUAACUGACAGGAUAUGCGUUGCAUCACUGUAAUGCAGAAGGGUCUUGUA [Same State 1 - Mod of JMF's solution 1] (puzzle: Same State 1)
apparent KD of MS2 coat protein [1]: 98.2 nM
apparent KD of MS2 coat protein [2]: 181 nM
apparent KD of MS2 coat protein [3]: 415 nM

UUCUCAUUUACAUGAGGAUCACCCAUGUUUUUUUGUCAGAAAUAGGAUAUAGGUCUCUCGUUUUACUAGAAGGAUUUCUUUAUU [JR_SSNG3_Sub088] (Eterna round: R96, puzzle: Same State NG 3)
apparent KD of MS2 coat protein (input ligand: FMN 200 uM): 146 nM
apparent KD of MS2 coat protein [4]: 134 nM
apparent KD of MS2 coat protein (input ligand: none): 145 nM

GGAGCCGGCCUAGGAUAUUUCAUUAAAUAACAUGAGGAUCACCCAUGUAGGCCAGAAGGCCUUGGGAAGAAGGAGGUCGGCUCC [Loop Effect - U24,U28] (Eterna round: R96, puzzle: Same State NG 2)
apparent KD of MS2 coat protein (input ligand: FMN 200 uM): 12.2 nM
apparent KD of MS2 coat protein [4]: 35 nM
apparent KD of MS2 coat protein (input ligand: none): 46.3 nM

UGGUACAUGGGAGGAUAUGGGCAAGGGACAUGAGGAUCACCCAUGUAUUAAAUGCCGAGAGGCAUCUAGAAGGCCCAUGUACCU [JL SSNG1 3.88] (Eterna round: R96, puzzle: Same State NG 2)
apparent KD of MS2 coat protein (input ligand: FMN 200 uM): 17.8 nM
apparent KD of MS2 coat protein [4]: 79.8 nM
apparent KD of MS2 coat protein (input ligand: none): 173 nM

AGUCCAGCCUGAGCUGGACAAAAGCAUGUACAUGAGGAUCACCCAUGUCAUGUAUAAGCUUUUUGCUCGUCUUAAUA [Zipper 49 - 11] (puzzle: Sensor for hsa-mir-208a)
apparent KD of MS2 coat protein [1]: 24 nM
apparent KD of MS2 coat protein [2]: 11 nM
apparent KD of MS2 coat protein [3]: 21.3 nM

AUUAUUAAUGCAGGAUAUGAUUAACAUGAGGAUCACCCAUGUGGUGUUGUGAGUAAGGAGAGUGAUCAGAAGGGCAUUUUUUGU [JMF's solution 16] (Eterna round: R96, puzzle: Same State NG 2)
apparent KD of MS2 coat protein (input ligand: FMN 200 uM): 798 nM
apparent KD of MS2 coat protein [4]: 264 nM
apparent KD of MS2 coat protein (input ligand: none): 615 nM

AUACCAUCGGGAGGAUAUGGCACCUUAUUGGUGCCAGAAGGUCUAACAUGAGGAUCACCCAUGUGGGAGUGGUCUAAUGACCAC [Eli NG1ss - 87] (Eterna round: R96, puzzle: Same State NG 1)
apparent KD of MS2 coat protein (input ligand: FMN 200 uM): 144 nM
apparent KD of MS2 coat protein [4]: 127 nM
apparent KD of MS2 coat protein (input ligand: none): 186 nM

CCGCUAAAUGGAGGAUAUGGAGCCUUAUUGGCUCCAGAAGGUCAAAACAUGAGGAUCACCCAUGUGCGGCGGUCUAAUGACCGA [Eli NG1ss - 48] (Eterna round: R96, puzzle: Same State NG 1)
apparent KD of MS2 coat protein [4]: 122 nM

AUACUCAUGUAAGGAUAUGCAGCCGAAACGGCUGCAGAAGGUACUAUAAUACAUGAGGAUCACCCAUGUCUCUAUUAUUUAGUU [Mat - Same State NG 1 - JL mod - D98] (Eterna round: R96, puzzle: Same State NG 1)
apparent KD of MS2 coat protein (input ligand: FMN 200 uM): 89.5 nM
apparent KD of MS2 coat protein [4]: 46.5 nM
apparent KD of MS2 coat protein (input ligand: none): 101 nM

ACACUCCGUGGAGGAUAUGGGCCUGCCCGGGAUACCGGGCCUAACACAUGAGGAUCACCCAUGUCCCAGAAGGCCGCUGGAGCC [Enenala] (Eterna round: R96, puzzle: Same State NG 2)
apparent KD of MS2 coat protein (input ligand: FMN 200 uM): 26.2 nM
apparent KD of MS2 coat protein [4]: 55.7 nM
apparent KD of MS2 coat protein (input ligand: none): 120 nM

UAUUUAAUCGUAGGAUAUAGAAUGAAAUUUGUACUAGAAGGACGUUACAUGAGGAUCACCCAUGUGGUAAGUGGGACAUAGUUU [JR_SSNG1_Sub036] (Eterna round: R96, puzzle: Same State NG 1)
apparent KD of MS2 coat protein (input ligand: FMN 200 uM): 141 nM
apparent KD of MS2 coat protein [4]: 84.5 nM
apparent KD of MS2 coat protein (input ligand: none): 82.2 nM

UCGAGCGUACUUGCAGACAUGAGGAUCACCCAUGUAAAUGGGAAGGAUAUGGUACCGUUUCGGUACCAGAAGGUCCUGGGUGCU [salish99_SSNG3_r04_307] (Eterna round: R96, puzzle: Same State NG 3)
apparent KD of MS2 coat protein (input ligand: FMN 200 uM): 329 nM
apparent KD of MS2 coat protein [4]: 1090 nM
apparent KD of MS2 coat protein (input ligand: none): 984 nM

CCGGAUAAUGGAGGAUAUGGAGCCUUAUUGGCUCCAGAAGGCUAACAUGAGGAUCACCCAUGUAAUCCGGCGGUCAAUAGACCG [Eli NG1ss - 65] (Eterna round: R96, puzzle: Same State NG 1)
apparent KD of MS2 coat protein (input ligand: FMN 200 uM): 12 nM
apparent KD of MS2 coat protein [4]: 15 nM
apparent KD of MS2 coat protein (input ligand: none): 25.5 nM
